Tested on: Escherichia coli TOP10
Assay: shrunken log2 fold change of peptide-encoding DNA abundance (4.5 h post-induction vs induction); higher = less antimicrobial activity (less host growth inhibition)
Details: time post-induction: 4.5 h; library: site-saturation at positions 5, 18, 19, 20
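Also: peptides expressed intracellularly from a pBAD plasmid library in pooled LB shake-flask culture, induced with 0.3% L-arabinose, DNA abundance read by NGS, three biological replicates, DESeq2 with apeglm shrinkage.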

Sequence	shrunken log2 fold change
RRIRFRPPRLPRPRPRPHMHPRP	-0.655
RRIRPRPPRLPRPRPRPADWPRP	0.434
RRIRQRPPRLPRPRPRPIICPRP	0.0208
RRIRARPPRLPRPRPRPSMLPRP	0.0741
RRIRCRPPRLPRPRPRPFHDPRP	-0.727
RRIRQRPPRLPRPRPRPCVRPRP	-0.154
RRIRKRPPRLPRPRPRPTHFPRP	-0.105
RRIRERPPRLPRPRPRPSTNPRP	-0.317
RRIRVRPPRLPRPRPRPPMYPRP	-0.366
RRIRDRPPRLPRPRPRPLQPPRP	0.467
RRIRSRPPRLPRPRPRPHGYPRP	-0.244
RRIRDRPPRLPRPRPRPECWPRP	1.84
RRIRNRPPRLPRPRPRPDLIPRP	-0.172
RRIRCRPPRLPRPRPRPNCSPRP	0.0117
RRIRSRPPRLPRPRPRPYMDPRP	-0.326
RRIRTRPPRLPRPRPRPQSNPRP	-0.581
RRIRGRPPRLPRPRPRPIWVPRP	-0.0275
RRIRYRPPRLPRPRPRPDCGPRP	-0.398
RRIRTRPPRLPRPRPRPKAYPRP	0.0161
RRIRCRPPRLPRPRPRPCTLPRP	-0.107

Sequence	shrunken log2 fold change
RRIRDRPPRLPRPRPRPSERPRP	0.0188
RRIRDRPPRLPRPRPRPFIRPRP	-0.29
RRIRMRPPRLPRPRPRPLALPRP	0.0404
RRIRFRPPRLPRPRPRPASYPRP	-0.218
RRIRARPPRLPRPRPRPIIMPRP	-0.258
RRIRVRPPRLPRPRPRPYHTPRP	-0.15
RRIRWRPPRLPRPRPRPWVAPRP	0.191
RRIRIRPPRLPRPRPRPARCPRP	0.0563
RRIRKRPPRLPRPRPRPGVRPRP	1.16
RRIRHRPPRLPRPRPRPASTPRP	-0.357
RRIRERPPRLPRPRPRPWIMPRP	-0.277
RRIRIRPPRLPRPRPRPSWQPRP	0.144
RRIRVRPPRLPRPRPRPFSKPRP	-0.138
RRIRQRPPRLPRPRPRPGQCPRP	-0.156
RRIRMRPPRLPRPRPRPLSFPRP	0.102
RRIRKRPPRLPRPRPRPNEEPRP	-1.35e-05
RRIRWRPPRLPRPRPRPGEIPRP	0.889
RRIRVRPPRLPRPRPRPACIPRP	-0.0537
RRIRMRPPRLPRPRPRPYGSPRP	-0.0489
RRIRGRPPRLPRPRPRPSLHPRP	0.316

Sequence	shrunken log2 fold change
RRIRGRPPRLPRPRPRPDIQPRP	1.9
RRIRIRPPRLPRPRPRPWWRPRP	-0.0114
RRIRHRPPRLPRPRPRPAQDPRP	0.0349
RRIRARPPRLPRPRPRPIQQPRP	0.0227
RRIRDRPPRLPRPRPRPIKHPRP	-0.373
RRIRERPPRLPRPRPRPKSKPRP	-0.19
RRIRGRPPRLPRPRPRPDMYPRP	0.0675
RRIRQRPPRLPRPRPRPRCLPRP	0.176
RRIRTRPPRLPRPRPRPRLVPRP	0.0412
RRIRERPPRLPRPRPRPLHSPRP	-0.0649
RRIRSRPPRLPRPRPRPQLRPRP	0.123
RRIRERPPRLPRPRPRPWMSPRP	-0.0212
RRIRGRPPRLPRPRPRPTWCPRP	0.521
RRIRVRPPRLPRPRPRPEMNPRP	-0.16
RRIRFRPPRLPRPRPRPRTGPRP	0.0905
RRIRLRPPRLPRPRPRPPIMPRP	-0.239
RRIRSRPPRLPRPRPRPSEPPRP	-0.167
RRIRMRPPRLPRPRPRPNYSPRP	-0.416
RRIRHRPPRLPRPRPRPSPVPRP	-0.0462
RRIRHRPPRLPRPRPRPNKEPRP	0.000399
